The text below walks through data of US20160031992A1.

In one assay the target is biotinylated αvβ6. Nature of the assay: inhibition of biotinylated αvβ6 binding to plate-coated LAP, streptavidin-HRP.
Assay [1] has as its target integrin αvβ6 on NIH3T3β6 cells (NIH3T3 cells transfected with β6). Description: FACS on NIH3T3β6 cells, geometric MFI against antibody concentration.

B1: humanized 1A8 antibody VH1/Vκ1 (antibody, IgG1, V domains shown)
VH: QVQFVQSGPELKKPGASVKVSCKGSSYTFTDYTMHWVKLAHAKTLEWIGVIDTYYGKTNYNQKFEGRATMTVDKSSSTAYMELARLRSEDSAVYYCARGGFRRGDRPSLRYAMDSWGQGTSVTVSS
VL: DIVLTQSPDSLAVSLGERATINCRASQSVSISTYSYIHWFQQKPGQPPKLLIKYASNLESGVPDRFSGSGSGTDFTLNIHPVEEEDVGIYYCQHSWEIPYTFGGGTKVEIK
As to B1, in the assay with biotinylated αvβ6, the IC50 relative to chimeric antibody (ratio to chimeric antibody) amounted to 1.02. The EC50 relative to chimeric antibody (ratio to chimeric antibody) in assay [1] worked out at 1.13.

B2: humanized 1A8 antibody VH4/Vκ3 (antibody, IgG1, V domains shown)
VH: QVQLVQSGAEVKKPGASVKVSCKGSSYTFTDYTMHWVRLASAKTLEWIGVIDTYYGKTNYNQKFEGRATITVDKSSSTAYMELSSLRSEDTAVYYCARGGFRRGDRPSLRYAMDSWGQGTLVTVSS
VL: DIVMTQSPDSLAVSLGERATINCRASQSVSISTYSYIHWFQQKPGQPPKLLIKYASNLESGVPDRFSGSGSGTDFTLKISRVEAEDVGIYYCQHSWEIPYTFGGGTKVEIK
As to B2, in the assay with biotinylated αvβ6, the IC50 relative to chimeric antibody (ratio to chimeric antibody) was determined as 1.74. In addition, the EC50 relative to chimeric antibody (ratio to chimeric antibody) in assay [1] amounted to 2.96.

B3: humanized 1A8 antibody VH4/Vκ2 (antibody, IgG1, V domains shown)
VH: QVQLVQSGAEVKKPGASVKVSCKGSSYTFTDYTMHWVRLASAKTLEWIGVIDTYYGKTNYNQKFEGRATITVDKSSSTAYMELSSLRSEDTAVYYCARGGFRRGDRPSLRYAMDSWGQGTLVTVSS
VL: DIVLTQSPDSLAVSLGERATINCRASQSVSISTYSYIHWFQQKPGQPPKLLIKYASNLESGVPDRFSGSGSGTDFTLKISRVEEEDVGIYYCQHSWEIPYTFGGGTKVEIK
Consider B3, for which the IC50 relative to chimeric antibody (ratio to chimeric antibody) with biotinylated αvβ6 came out at 2.3. Further, in assay [1], the EC50 relative to chimeric antibody (ratio to chimeric antibody) was 3.24.

B4: humanized 1A8 antibody VH3/Vκ1 (antibody, IgG1, V domains shown)
VH: QVQLVQSGAEVKKPGASVKVSCKGSSYTFTDYTMHWVRLASAKTLEWIGVIDTYYGKTNYNQKFEGRATMTVDKSSSTAYMELSSLRSEDTAVYYCARGGFRRGDRPSLRYAMDSWGQGTLVTVSS
VL: DIVLTQSPDSLAVSLGERATINCRASQSVSISTYSYIHWFQQKPGQPPKLLIKYASNLESGVPDRFSGSGSGTDFTLNIHPVEEEDVGIYYCQHSWEIPYTFGGGTKVEIK
As to B4, in the assay with biotinylated αvβ6, the IC50 relative to chimeric antibody (ratio to chimeric antibody) was 1.07. For the same molecule, the EC50 relative to chimeric antibody (ratio to chimeric antibody) in assay [1] came to 2.86.

B5: humanized 1A8 antibody VH1/Vκ2 (antibody, IgG1, V domains shown)
VH: QVQFVQSGPELKKPGASVKVSCKGSSYTFTDYTMHWVKLAHAKTLEWIGVIDTYYGKTNYNQKFEGRATMTVDKSSSTAYMELARLRSEDSAVYYCARGGFRRGDRPSLRYAMDSWGQGTSVTVSS
VL: DIVLTQSPDSLAVSLGERATINCRASQSVSISTYSYIHWFQQKPGQPPKLLIKYASNLESGVPDRFSGSGSGTDFTLKISRVEEEDVGIYYCQHSWEIPYTFGGGTKVEIK
Regarding B5, in the assay with biotinylated αvβ6, the IC50 relative to chimeric antibody (ratio to chimeric antibody) was determined as 1.19. Also, the EC50 relative to chimeric antibody (ratio to chimeric antibody) in assay [1] amounted to 1.07.

B6: humanized 1A8 antibody VH1/Vκ3 (antibody, IgG1, V domains shown)
VH: QVQFVQSGPELKKPGASVKVSCKGSSYTFTDYTMHWVKLAHAKTLEWIGVIDTYYGKTNYNQKFEGRATMTVDKSSSTAYMELARLRSEDSAVYYCARGGFRRGDRPSLRYAMDSWGQGTSVTVSS
VL: DIVMTQSPDSLAVSLGERATINCRASQSVSISTYSYIHWFQQKPGQPPKLLIKYASNLESGVPDRFSGSGSGTDFTLKISRVEAEDVGIYYCQHSWEIPYTFGGGTKVEIK
Turning to B6, in the assay with biotinylated αvβ6, the IC50 relative to chimeric antibody (ratio to chimeric antibody) is 1.05. In addition, the EC50 relative to chimeric antibody (ratio to chimeric antibody) in assay [1] was 1.04.

B7: humanized 1A8 antibody VH2/Vκ1 (antibody, IgG1, V domains shown)
VH: QVQLVQSGAEVKKPGASVKVSCKGSSYTFTDYTMHWVKLASAKTLEWIGVIDTYYGKTNYNQKFEGRATMTVDKSSSTAYMELSSLRSEDTAVYYCARGGFRRGDRPSLRYAMDSWGQGTLVTVSS
VL: DIVLTQSPDSLAVSLGERATINCRASQSVSISTYSYIHWFQQKPGQPPKLLIKYASNLESGVPDRFSGSGSGTDFTLNIHPVEEEDVGIYYCQHSWEIPYTFGGGTKVEIK
Take B7: the IC50 relative to chimeric antibody (ratio to chimeric antibody) with biotinylated αvβ6 was 1.48. In addition, the EC50 relative to chimeric antibody (ratio to chimeric antibody) in assay [1] was 3.

B8: humanized 1A8 antibody VH2/Vκ2 (antibody, IgG1, V domains shown)
VH: QVQLVQSGAEVKKPGASVKVSCKGSSYTFTDYTMHWVKLASAKTLEWIGVIDTYYGKTNYNQKFEGRATMTVDKSSSTAYMELSSLRSEDTAVYYCARGGFRRGDRPSLRYAMDSWGQGTLVTVSS
VL: DIVLTQSPDSLAVSLGERATINCRASQSVSISTYSYIHWFQQKPGQPPKLLIKYASNLESGVPDRFSGSGSGTDFTLKISRVEEEDVGIYYCQHSWEIPYTFGGGTKVEIK
Turning to B8, the IC50 relative to chimeric antibody (ratio to chimeric antibody) with biotinylated αvβ6 amounted to 1.32. Further, the EC50 relative to chimeric antibody (ratio to chimeric antibody) in assay [1] was 2.4.

B9: humanized 1A8 antibody VH2/Vκ3 (antibody, IgG1, V domains shown)
VH: QVQLVQSGAEVKKPGASVKVSCKGSSYTFTDYTMHWVKLASAKTLEWIGVIDTYYGKTNYNQKFEGRATMTVDKSSSTAYMELSSLRSEDTAVYYCARGGFRRGDRPSLRYAMDSWGQGTLVTVSS
VL: DIVMTQSPDSLAVSLGERATINCRASQSVSISTYSYIHWFQQKPGQPPKLLIKYASNLESGVPDRFSGSGSGTDFTLKISRVEAEDVGIYYCQHSWEIPYTFGGGTKVEIK
As to B9, in the assay with biotinylated αvβ6, the IC50 relative to chimeric antibody (ratio to chimeric antibody) amounted to 0.98. Further, the EC50 relative to chimeric antibody (ratio to chimeric antibody) in assay [1] stood at 2.46.

B10: humanized 1A8 antibody VH4/Vκ1 (antibody, IgG1, V domains shown)
VH: QVQLVQSGAEVKKPGASVKVSCKGSSYTFTDYTMHWVRLASAKTLEWIGVIDTYYGKTNYNQKFEGRATITVDKSSSTAYMELSSLRSEDTAVYYCARGGFRRGDRPSLRYAMDSWGQGTLVTVSS
VL: DIVLTQSPDSLAVSLGERATINCRASQSVSISTYSYIHWFQQKPGQPPKLLIKYASNLESGVPDRFSGSGSGTDFTLNIHPVEEEDVGIYYCQHSWEIPYTFGGGTKVEIK
On to B10, for which the IC50 relative to chimeric antibody (ratio to chimeric antibody) with biotinylated αvβ6 came out at 1.93. Moreover, the EC50 relative to chimeric antibody (ratio to chimeric antibody) in assay [1] amounted to 3.57.

B11: humanized 1A8 antibody VH3/Vκ3 (antibody, IgG1, V domains shown)
VH: QVQLVQSGAEVKKPGASVKVSCKGSSYTFTDYTMHWVRLASAKTLEWIGVIDTYYGKTNYNQKFEGRATMTVDKSSSTAYMELSSLRSEDTAVYYCARGGFRRGDRPSLRYAMDSWGQGTLVTVSS
VL: DIVMTQSPDSLAVSLGERATINCRASQSVSISTYSYIHWFQQKPGQPPKLLIKYASNLESGVPDRFSGSGSGTDFTLKISRVEAEDVGIYYCQHSWEIPYTFGGGTKVEIK
On to B11, for which the IC50 relative to chimeric antibody (ratio to chimeric antibody) in the assay with biotinylated αvβ6 turned out to be 1.2. In assay [1], the EC50 relative to chimeric antibody (ratio to chimeric antibody) was 2.41.
